Measured values taken from patent EP2319871A1 (Sanofi-Aventis, dated 2011).
“And” between values parts separate entries of the source, which are not always exact repeats. Equal values may be shown once.

B1: 56 RAGE-1 (antibody, V domains shown)
VH: QVQLQQSGPELVKPGASVRISCKASGYTFTSYFIHWVKQRPGQGLEWIGWIYPGNVNTKYNEKFKDKATLTADKSSSTAYMQLSNLTSEDSAVYFCVRGQLGDYWGQGITLTVSS
VL: DIVMTQSQKFMSTSVGDRVSVTCKASQNVGINVAWYQQKPGQSPKALIYSASYRYSGVPDRFTGSGSGTDFTLIISNVQSEDLAEYFCQQYNNYPRTFGGGTKLEIK
notes: Hybridoma monoclonal antibody, captured on anti-mouse Fc in Biacore; also called LP08103; Protein 56 RAGE-1
B2: 152 RAGE-1 (antibody, V domains shown)
VH: DVQLQESGPDLVKPSQSLSLTCTVTGYSITSGYSWHWIRQFPGNKLEWMGYIHYSGSTNYNPSLKSRISITRDTSKNQFFLQLNSVTTEDTATYYCARGGDFAYWGQGTLVTVSA
VL: DIVLTQSPASLAVSLGQRATISCRASKSVGTSDSSYMHWYQQKPGQPPKLLIYLASNLESGVPARFSGSGSGTDFTLNIHPVEEEDAATYYCQHSRELYTFGGGTKLEIK
notes: Hybridoma monoclonal antibody, captured on anti-mouse Fc in Biacore; also called LP08104; Protein 152 RAGE-1
B3: 130 RAGE-1 (antibody, V domains shown)
VH: EVQLVESGGGLVKPGGSLKLSCAASGFTFSSYVMSWVRQSPEKRLEWVAEISSGGSYTYYPDTVTGRFTISRDNDKNTLYLEMSSLRSEDTAMYYCARPPYGKDAMDYWGQGTSVTVSS
VL: QIVLTQSPAIMSASPGEKVTMTCSASSSVSYMHWYQQKSGTSPKRWISDTSKLASGVPARFSGSGSGTSYSLTISSMEAEDAATYYCQQWSSNPPTFGGGTKLEIK
notes: Hybridoma monoclonal antibody, captured on anti-mouse Fc in Biacore; also called Protein 130 RAGE-1
B4: 95 RAGE-1 (antibody, V domains shown)
VH: QVQLQQPGAELVKPGASVKLSCKASGYTFTSYWMHWVKQRPGQGLEWIGESNPSNGRTNYNEKFKNKATLTVDKSSSTAYMQLSSLTSEDSAVYYCARAPYYGFDYWGQGTTLTVSS
VL: QAVVTQESALTTSPGETVTLTCRSSTGAVTTSNYANWVQEKPDHLFTGLTGGTNNRAPGVPARFSGSLIGDKAALTITGAQTEDEAIYFCALWYSNHWVFGGGTKLTVL
notes: Hybridoma monoclonal antibody, captured on anti-mouse Fc in Biacore; also called Protein 95 RAGE-1
B5: 140 RAGE-1 (antibody, V domains shown)
VH: QVQLQQPGAELVKPGASVRLSCKASGYTFTSYWMHWVKQRPGQGLEWIGEINPSNGRTNYNEKFKSKATLTVDKSSSTAYMQLSSLTSEDSAVYYCARDGLGYRPIAMDYWGQGTSVTVSS
VL: QIVLTQSPAIMSASPGEKVTISCSASSSVSYMYWYQQKPGSSPKPWIYRTSNLASGVPARFSGSGSGTSYSLTISSMEAEDAATYYCQQYHSYPPMYTFGGGTKLEIK
notes: Hybridoma monoclonal antibody, captured on anti-mouse Fc in Biacore; also called Protein 140 RAGE-1

molecular target: T1, RAGE-Fc (human, UniProt Q15109 23-342, limits assumed); test: competition ELISA, RAGE-S100A6 interaction (competitor S100A6)
T1 construct: Format stated for the S100A12 and S100A6 ELISAs; also called hRAGE; not shown: Fc part, detected with anti-hIgG Fc-specific-POD
T1 sequence (Q15109 23-342 limits assumed): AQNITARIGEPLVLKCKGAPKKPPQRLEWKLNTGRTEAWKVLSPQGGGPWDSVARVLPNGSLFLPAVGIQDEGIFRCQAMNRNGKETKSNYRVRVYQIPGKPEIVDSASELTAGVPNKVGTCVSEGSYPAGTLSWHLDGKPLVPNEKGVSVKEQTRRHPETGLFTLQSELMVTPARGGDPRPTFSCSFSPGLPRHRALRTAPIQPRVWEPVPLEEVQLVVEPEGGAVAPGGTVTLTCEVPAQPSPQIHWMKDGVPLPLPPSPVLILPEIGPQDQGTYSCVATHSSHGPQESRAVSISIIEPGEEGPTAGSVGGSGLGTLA

Binder	IC50
B1	7700 pM

molecular target: T2, sRAGE (V-C1-C2) lot LP08062 (human, UniProt Q15109 23-342); test: SPR (Biacore), mAb captured on anti-mouse Fc, sRAGE 15 nM, 1:1 Langmuir
T2 construct: extracellular domain; also called Human RAGE; LP08062 (Rage)
T2 sequence (Q15109 23-342): as the sequence (Q15109 23-342 limits assumed) above

Binder	Kd	koff	kon
B2	687 pM	0.00265 s⁻¹	3.86e+06 M⁻¹ s⁻¹
B3	236 pM	0.00136 s⁻¹	5.76e+06 M⁻¹ s⁻¹
B4	462 pM	0.00123 s⁻¹	2.66e+06 M⁻¹ s⁻¹
B1	1870 pM	0.00539 s⁻¹	2.89e+06 M⁻¹ s⁻¹
B5	303 pM	0.00157 s⁻¹	5.19e+06 M⁻¹ s⁻¹

molecular target: RAGE-Fc (human) (UniProt Q15109); test: competition ELISA, mAb 10 µg/mL + RAGE-Fc 10 µg/mL on coated S100A6 (competitor S100A6)
Sequence (Q15109 23-342 limits assumed): as above

Binder	inhibitory effect
B2	> 20%

molecular target: T1, RAGE-Fc; test: competition ELISA, RAGE-Fc 10 µg/mL + diluted mAb on coated S100A6 (competitor S100A6)

Binder	IC50
B1	1.16 µg/mL and 7.73 nM
